{"source": "the DeepSol protein solubility set", "data": [{"assay": "soluble on expression in E. coli; label from the status in PepcDB or PDB records", "values": [{"sequence": "MGSDKIHHHHHHGCSDSMTEESDSEQRIPIVFGTQVATRAVVENNKEGMDNFTLWGWVRESDGPKLFFDAVPVTPSGNYGEKRFWAVGRPYGFYAVHPEKMKENNIATEVSCNDKGELRVTGFDSSEMGKGAVDLMTAAKTDVVYEGGGMMAPVLLAFKHELAQVKFTVCTGEKQAEVSDIRLLGVDYKGDLLWTPEESTWQNRINCTEEGTPFVRSESVRIEAGSSVTVLDSVLLLPQPVTEHVAVTFKYAYAGKPLSEAKEAMVYLDVAQTTEWIKSSTYHYKITLPAGDADITVKVSVGDWDSRDISADW", "soluble on expression in E. coli": "not soluble"}, {"sequence": "MKTIHVSVVTPDGPVYEDDVEMVSVKAKSGELGILPGHIPLVAPLEISAARLKKGGKTQYIAVSGGFLEVRPDKVTILAQAAERAEDIDVLRAKAAKERAERRLQSQQDDIDFKRAELALKRAMNRLSVAEMK", "soluble on expression in E. coli": "soluble"}, {"sequence": "MSLNDTALTITAVRAVLLSHRYQPGEELTWVGGTIWSWDAALVEVTLSDGTTGIGEAGAGIMAAAAVPGIVDAFRPYVLDHEFGHPLEVADHLRAYTAFWARGGMLNGVAGAIETAAVDAVAKRLGVPAYEVLGGLKRDWIESYASGGLGTTFGEVSDWAAAQIEAGFGTVKFRAMTDPDTTIKLLDHVTALLPEGIQFVIDAVQACASDPWPVDEAIRVGQKAAELGARWYEEPCQADDVAGYAAVRAAVNVPISGVESNGTVRDFAQLLDAKALDVAQPDVTFVGGPKAFAQVAELAHATGVKTVPHVWGSGVTFAANLHTVLANPYVELFEYCTLPNPLRDAMRVEEVDFRDGGIVAPTAPGLGIQLTPEIEAQFPFSPGGGHVIREGHHHHHH", "soluble on expression in E. coli": "soluble"}, {"sequence": "MAETFKIRKLEISDKRKGFIELLGQLTVTGSVTDEEFDRRFEEIRSYGDDHVICVIEEETSGKIAATGSVMIEKKFLRNCGKAGHIEDVVVDSRFRGKQLGKKVVEFLMDHCKSMGCYKVILDCSVENKVFYEKCGMSNKSIQMSKYFD", "soluble on expression in E. coli": "soluble"}, {"sequence": "MSLTIIKQVELHEFDFKAKNLGNLTGAESVGAFGYLKGSFSKIKKFAVVIITDDGVRGEYVTHWCASDATYAQSSILAPKLLGRNAEEREGIYDDFKRELRQFDHMGHGPIDIALWDWAGKKLDCSVNFLLGGFKKKLPAYASTYHGDRNGGLDSKEAFSDFAEYCYDLGYKAFKIHGWNDGNAKEEAENVLHVAKKVGHKMTLMLDPACELRTFADALYVGKACDEADYFWLEDPYRDSGVSAFAHKKLRNMIKTPILQTEHIRGLEPKADFLIAGGTDFLRMDPEYDMGITGGMKIAHLAESFGVDVEIHACGPAHRHMMSAIRNTNFYEVALLGPDCPNAIPPVYLCGYSDMIDCIDKNGFVEVPNGVGLGVKYDWEFISKNTTNKKIFSLEGHHHHHH", "soluble on expression in E. coli": "soluble"}, {"sequence": "MTTWTLNHNNLTKFLTHAQLEPSLERESGLIYITVPAGEHELPLFFVIRNEGEVLQLVCYFPYQIQQNQRDTTARLLHLVNRDIDIPGFGMDEEQNIIFYRLVIPCLKGEINEDLLRVYIDTIKLICDSFFHAIGLISTGNMDLDELKKQAKLENNQSDQLEP", "soluble on expression in E. coli": "soluble"}, {"sequence": "SLQSIIGKHKDEGKITPEYLKKIDAYWRAANFISVGQLYLLDNPLLREPLKPEHLKRKVVGHWGTIPGQNFIYAHLNRVIKKYDLDMIYVSGPGHGGQVMVSNSYLDGTYSEVYPNVSRDLNGLKKLCKQFSFPGGISSHMAPETPGSINEGGELGYSLAHSFGAVFDNPDLITACVVGDGEAETGPLATSWQANKFLNPVTDGAVLPILHLNGYKISNPTVLSRIPKDELEKFFEGNGWKPYFVEGEDPETMHKLMAETLDIVTEEILNIQKNARENNDCSRPKWPMIVLRTPKGWTGPKFVDGVPNEGSFRAHQVPLAVDRYHTENLDQLEEWLKSYKPEELFDENYRLIPELEELTPKGNKRMAANLHANGGLLLRELRTPDFRDYAVDVPTPGSTVKQDMIELGKYVRDVVKLNEDTRNFRIFGPDETMSNRLWAVFEGTKRQWLSEIKEPNDEFLSNDGRIVDSMLSEHLCEGWLEGYLLTGRHGFFASYEAFLRIVDSMITQHGKWLKVTSQLPWRKDIASLNLIATSNVWQQDHNGYTHQDPGLLGHIVDKKPEIVRAYLPADANTLLAVFDKCLHTKHKINLLVTSKHPRQQWLTMDQAVKHVEQGISIWDWASNDKGQEPDVVIASCGDTPTLEALAAVTILHEHLPELKVRFVNVVDMMKLLPENEHPHGLSDKDYNALFTTDKPVIFAFHGFAHLINQLTYHRENRNLHVHGYMEEGTITTPFDMRVQNKLDRFNLVKDVVENLPQLGNRGAHLVQLMNDKLVEHNQYIREVGEDLPEITNWQWHV", "soluble on expression in E. coli": "soluble"}, {"sequence": "MGFLKILRKQRAREREMRILILGLDNAGKTTLMKKFLDEPTDTIEPTLGFDIKTVHFKDFQLNLWDVGGQKSLRSYWKNYFESTDALIWVVDSSDRERLLQCSEELKKLLGEERLAGASLLVLANKSDLPGAIDVNSIAQVLDLHSIKSHHWKIFSCCALSGDRLVQAMTWLCDDVGSRLFILD", "soluble on expression in E. coli": "not soluble"}, {"sequence": "MGSDKIHHHHHHMKVCILGATGRVGSNIIKLALKDSVEVTALARDSSRVEINHERLRVIEGNVLNENDIKKAIEGSDIVISALGTDQNGTLAKSMPQIIKKMEEEGVRKIITIGTAGILQARTNLNLYRFQSTESKRKSTTAAEEHLAAYKILSSSNLCWTVVCPTHLIDGDVTGIYRTEKDVLPEGGAKITVGDTAQFTWNLCSKNKYENSRVGISY", "soluble on expression in E. coli": "not soluble"}, {"sequence": "MAGDPMGTLKLIQYPSQLLSLTISDIINKQNLSQLIQKSKKDDSENWEGKDWIIKNTPQQGINWIGEHPNIKAVIIKTKDGSYADDGWKNNEKTIYSYSFKAAKGIINFNDSANRVLINQPISNYPILLFTDSSNKWEFQGCFKIIDILEKAVILEKMISFPSLNDKNSDNDDVILYKNEHTEGKIKYITHMLSERNRKIIDEIKDNSQWVCDICEIKFLDKYGKNYIEAHHKIPIHTFTGEHRILKTDFALLCPNCHKAVHIYLREENLQYEEAKIKIRNILKRLEHHHHHH", "soluble on expression in E. coli": "not soluble"}, {"sequence": "MITCLPLLAGEGARRKGDIGMRNKNKRLAQYATELRRNMTDAEYALWYHLRNKLFCGIRFNRQVIIGHYIVDFCSRKLKLVIELDGIQHVEQEQYDLERTKFLTAQGYKVIRFWNDEVLKNIDNVLEAIYVEIEHLSPPHFGSSPHKWVEPRLEVLK", "soluble on expression in E. coli": "not soluble"}, {"sequence": "MGSDKIHHHHHHMNHPSVFHPGPAAISPQQRLLLMHEGEWEDFIEECVRQLQKEGNYVEVVALGGSGDKGRDVCGYSKEYPAAGTWDLYQAKHYDSPLTPSEFFPELAKFVTCVWREDYTRPAKYFICASRDVGTTLFDLLKNPVRLKERLLDDWRKKGGKFGKFKQPLDADLEKFIEVFPFDVVKRLPPMELLSIHERDTASYWARFGVLAPRENDPEVPPKPVSSESTYVTALLRVYAEHAQVKIDDVPDIPPAHGAHFKAQRRLFYSAEGLHRFSRDKLPGAFEALLDEVENGIGAELTFPHESGFVRLHSVLKTANVLQIMNNPLRARLRSGDLQGSCHHLANQGRAQWVESDEADGESV", "soluble on expression in E. coli": "not soluble"}, {"sequence": "SMQQRKVLTLEKEDNQTFGFEIQTYGLHHREEQRVEMVTFVCRVHESSPAQLAGLTPGDTIASVNGLNVEGIRHREIVDIIKASGNVLRLETLYSSTL", "soluble on expression in E. coli": "soluble"}, {"sequence": "MGHHHHHHSHMARATTKQDLIMASNGQFEKLWVLIDGMSDDLQNATFADQMATAGKEAHWGRDKNLRDVLVHLYEWHQLLLNWINSNSKGERKPFLPEPYNWKTYSVMNVEFWKKHQQTPLAEAKDKLKESHRQVMALIETFSNDELFAKGVFDWTDTSTLGAYCVSATSSHYDWAMKKIKLHIKTGK", "soluble on expression in E. coli": "soluble"}, {"sequence": "MMNASTKFSDNYDVKEELGKGAFSVVRRCVHKTTGLEFAAKIINTKKLSARDFQKLEREARICRKLQHPNIVRLHDSIQEESFHYLVFDLVTGGELFEDIVAREFYSEADASHCIQQILESIAYCHSNGIVHRDLKPENLLLASKAKGAAVKLADFGLAIEVNDSEAWHGFAGTPGYLSPEVLKKDPYSKPVDIWACGVILYILLVGYPPFWDEDQHRLYAQIKAGAYDYPSPEWDTVTPEAKSLIDSMLTVNPKKRITADQALKVPWICNRERVASAIHRQDTVDCLKKFNARRKLKAAISAVKMVTRMSGVLRTSDSTGSVASNGSTTHDASQVAGTSSQPTSPAAEGAILTTMIATRNLSNLGRNLLNKKEQGPPSTIKESSESSQTIDDNDSEKGGGQLKHENTVVRADGATGIVSSSNSSTASKSSSTNLSAQKQDIVRVTQTLLDAISCKDFETYTRLCDTSMTCFEPEALGNLIEGIEFHRFYFDGNRKNQVHTTMLNPNVHIIGEDAACVAYVKLTQFLDRNGEAHTRQSQESRVWSKKQGRWVCVHVHRSTQPSTNTTVSEF", "soluble on expression in E. coli": "not soluble"}, {"sequence": "MGSDKIHHHHHHMITKEDIVADVVTDYPKSADIFRNAGIDFCCGGQESIASAVNHKPNIDLNSLLNKLNHIDNTEGNSTINPKFLNVESLIQYIQSAYHETLKEEFKNLTPYMTKLAKVHGPSHPYLLKLQDLYREFRDSMLDHIRKEDEEDFPKLIQYSQGQDVQNIKIILEDLINDHEDTGQLLNVMNQLTSDYQTPEEACGTWKLVYQRLQNIERQTHQHVHLENHVLFKKVS", "soluble on expression in E. coli": "not soluble"}, {"sequence": "MSLARSMTTGRSGTIGVVVGDIENPFFSLAVRGITDVARQAGFTVILINSGEDAAAEKAAIRTLLAKRVDGLIVSPAKENDVEHLHEVIRSGLPLALLDRGSDTLEVDTVLADDRYTAENVTSRLIALGHRRIAYLTACDTPDHRFRTPQDISTGSVRRRIEGYLAVCREAGFIGMEDWVKVGAVTPERTHRIVIETLQSGHRPTAIIASDSIIGLEVFKAHRELGLNIPGDLSLVSFHDADWTSVTTPPVTVVRQPVYELGATAARLLVERLNGEDRAARKVVLKNEVVERASTRAIEGHHHHHH", "soluble on expression in E. coli": "soluble"}, {"sequence": "MSRTAVREAVKTLTAKGMVLPRPRIGTRVMPQSNWNFLDQELLTWWITEENFHQVIDHFLVMRICLEPQACLLAATVGTAEQKAHLNTLMAEMAALKENFRRERWIEVDMAWHEHIYEMSANPFLTSFASLFHSVYHTYFTSITSDTVIKLDLHQAIVDAIIQSDGDAAFKACQALLRSPDK", "soluble on expression in E. coli": "not soluble"}, {"sequence": "MVYFAYGSNLCLEQMKKRCPEAIPMISVHLDDYKLVYNKYADIIPCEGEKVYGAIYEISLNDLKNLDKYEEYSDLYEKIDLIVQDINGISYEAFAYVMNEKGDKTPDKRYLDIINKGYEDWGIIY", "soluble on expression in E. coli": "not soluble"}, {"sequence": "MSLAVKILSVDDELDLEVLLTQYFRRQIRKGEYEFAFAHNGLEALQKLLETPDFDIILSDINMPEMDGLTLLAKVNELKNPAMKCIMVSAYGDMDNIRSAMNKGAFDFATKPIDLDDLSRTIEKAIEQVRYIRESQQEHNQLESIKNDLAIAGEIQQTILPRSFPPFPELTEVVNIYASMTPAKDVGGDFYDFFQIDDERIGLVIADVSGKGVPASLFMAVSRTLLRATALRGVSSAECLTYANKLLCKESLDSMFVTVFYGIYHYKTGMMDYTNAGHNPPYLLRGGRTVECLPVASNFVVGVFDDIEFESNTLTFGIGDTLLLYTDGVTEAFNDKREQFSESNLQDILASMHESSSAKEVVTSVLQSVKTFSGDYPQSDDITLLSLQRIKEGHHHHHH", "soluble on expression in E. coli": "soluble"}, {"sequence": "MSEMSAIYRVKQYILNLIKDGELTNGSKLPSNLSIARALNVKTDDVYDGIDELITEQVVTDNFEEGTSVKVKPPFYYPLNKIISIGTMIKEAGYEAGTEYLNLDEQPATILDAEHLGIETKEPITIIERLRTANHKPVVYCLDKIAKTYLTCTDYQQSSGSMLEAIKASTNHQIMHAEMDLEAISYEPHISEVLNASPHEGLMLLKVVHYDEKHQPILYSLNYIKSSLVKFTITKSE", "soluble on expression in E. coli": "not soluble"}, {"sequence": "MEKKTIVLGVIGSDCHAVGNKILDHAFTNAGFNVVNIGVLSPQEVFIKAAIETKADAILLSSLYGQGEIDCKGLRQKCDEAGLEGILLYVGGNIVVGKQHWPDVEKRFKDMGYDRVYAPGTPPEVGIADLKKDLNIE", "soluble on expression in E. coli": "soluble"}, {"sequence": "MASNEKTRYKAIIADHTYTIIGQESKQHMDLVTKIVNEQLAEIKHLSPQTDTEQASVLLAINAISDQLKKQEYALKLEKQVADLKQKTIRLAELENRVRRMEIIEEEARDVLKKNGQEDVEIHNHVEAQQILNENRKQQIQNKGVSE", "soluble on expression in E. coli": "not soluble"}]}]}
